Assay results reported in patent publication US20030236190A1 (published 2003).
Non-standard residues stand in square brackets, D forms with d. No end group written: not given here. *: point of attachment. Biotin = O=C1N[C@H]2[C@H](CS[C@H]2CCCCC(=O)*)N1; Bpa = N[C@@H](Cc1ccc(C(=O)c2ccccc2)cc1)C(=O)O; Tic = O=C(O)[C@@H]1Cc2ccccc2CN1; Ac6c = NC1(C(=O)O)CCCCC1

B1: S440 (peptide)
peptide 1: ESFYDWFERQLGGGGK
peptide 2: EWAWVQCEVYGRGCPS
modifications: not fully specified (bridges); cysteine pairing not given here; also: K16 of chain 1 chemically linked to C-terminus of chain 2 (C-C on a lysine)
B2: S441 (peptide)
peptide 1: ESFYDWFERQLGGGGK
peptide 2: WAWVQCEVYGRGCPS
modifications: not fully specified (bridges); cysteine pairing not given here; also: K16 of chain 1 chemically linked to C-terminus of chain 2 (C-C on a lysine)
B3: S442 (peptide)
peptide 1: ESFYDWFERQLGGGGK
peptide 2: AWVQCEVYGRGCPS
modifications: not fully specified (bridges); cysteine pairing not given here; also: bond at chain A 16 to a chain's C-terminus
B4: S456 (peptide)
peptide 1: XGSLDESFYDWFERQLGKK
peptide 2: XKEWLDQEWAWVQCEVYGRGCPSEE
modifications: not fully specified; N-terminal Ald
B5: S527 (peptide)
peptide: H[Ac6c]CAQE[dW]GSEL[Tic]QCSGSESFYDWFERQL
modifications: not fully specified (bridges); printed as H-Acy-CAQEwGSEL-Tic-QCSGSESFYDWFERQL; cysteine pairing not given here
notes: leading H- read as His; it may mean a free N-terminus
B6: S546 (peptide)
peptide: SLEEEWAQVECEV[Bpa]GRGCPSGSLDESFYDWFERQ[Bpa]GK(Biotin)
modifications: not fully specified (bridges); printed as SLEEEWAQVECEV-Bpa-GRGCPSGSLDESFYDWFERQ-Bpa-GK(Biotin); cysteine pairing not given here

These binders were tested against human insulin receptor (HIR) (human, UniProt P06213 28-1382, limits assumed) (assay: 125I-insulin competition, solubilised HIR).
With B1 the Kd was 99 nM.
Work on B2 yielded a Kd of 120 nM.
B3 showed a Kd of 160 nM.
Binder B4 has a Kd of 2.4 nM.
Binder WLDQEWAWVQCEVYGRGCPSGGSGGSGSLDESFYDWFERQLG [S457] has a Kd of 1.6 nM.
Work on WLDQEWAWVQCEVYGRGCPSGGSGGSGSLDESFYDWFERQLG [S458] yielded a Kd of 3.2 nM.
Work on GSLDESFYDWFERQLGGGSGGSWLDQEWAWVQCEVYGRGCPS [S459] yielded a Kd of 0.076 nM.
GSLDESFYDWFERQLGGGSGGSWLDEEWAQVQCEVYGRGCPS [S543] was tested, and the Kd was 0.019 nM.
In the case of LDQEWAWVQCEVYGRGCPSESFYDWFERQLG [S471], the Kd is reported as 0.67 nM.
Work on ADQEWAWVQCEVYGRGCPSESFYDWFERQLG [S494] yielded a Kd of 17 nM.
For LDEWAWVQCVEYGRGCPSESFYDWFERQLG [S483], the Kd was 52 nM.
Work on LDQEWAWVQCVYGRGCPSESFYDWFERQLG [S486] yielded a Kd of 57 nM.
For LDQEWAQVQCEVYGRGCPSESFYDWFERQL [S533], the Kd was 0.067 nM.
LAQEWAWVQCEVYGRGCPSESFYDWFERQL [S495] gave a Kd of 2.6 nM.
LDQAWAWVQCEVYGRGCPSESFYDWFERQL [S497] showed a Kd of 2.5 nM.
Work on LDQEAAWVQCEVYGRGCPSESFYDWFERQL [S498] yielded a Kd of 56 nM.
For LDQEWAAVQCEVYGRGCPSESFYDWFERQL [S499], the Kd was 0.62 nM.
Work on LDQEWAWVQCAVYGRGCPSESFYDWFERQL [S502] yielded a Kd of 3 nM.
For LDQEWAWVQCEAYGRGCPSESFYDWFERQL [S503], the Kd was 2.1 nM.
LDQEWAWVQCEVAGRGCPSESFYDWFERQL [S504] showed a Kd of 13 nM.
LEEEWAQVECEVYGRGCPSESFYDWFERQL [S536] showed a Kd of 0.083 nM.
For SLEEEWAQVECEVYGRGCPSGGSGGSGLLDESFYHWFDRQLR [S510], the Kd was 0.062 nM.
WLDQEWAWVQCEVYGRGCPSGGSGGSGRVDWLQRNANFYDWFVAELG [S511] was tested, and the Kd was 3.8 nM.
WLDQEWAWVQCEVYGRGCPSGGSGGSSQAGSAFYAWFDQVLRTV [S512] showed a Kd of 28 nM.
Binder RLEEEWAWVQCEVYGRGCPSGSLDESFYDWFERQLG [S518] has a Kd of 0.16 nM.
In the case of SLEHEWAQVECEVYGRGCPSGSLDESFYDWFERQLG [S537], the Kd is reported as 0.044 nM.
SLEQEWAQVECEVYGRGCPSGSLDESFYDWFERQLG [S538] showed a Kd of 0.038 nM.
SLELEWAQVECEVYGRGCPSGSLDESFYDWFERQLG [S539] showed a Kd of 0.098 nM.
SLEEEWAQVKCEVYGRGCPSGSLDESFYDWFERQLG [S540] was tested, and the Kd was 0.013 nM.
Work on SLEEEWAQVECEVWGRGCPSGSLDESFYDWFERQLG [S541] yielded a Kd of 0.0078 nM.
With SLEEEWAQVECEVYGRGCPSGSLDESFYH[dW]FERQLG (cysteine pairing not given here) [S542] the Kd was 0.027 nM.
SLEEEWAQVEAEVYGRGAPSGSLDESFYDWFERQLG [S551] gave a Kd of 0.072 nM.
Binder SIEEEWAQIKCDVWGRGCPPGLLDESFYHWFDRQLR [S520] has a Kd of 0.02 nM.
HLCVLEELFWGASLFGYCSGGSLDESFYDWFERQL [S521] showed a Kd of 27 nM.
Work on WLDQEWAWVQCEVYGRGCPSDSDWAGYEWFEEQLD [S523] yielded a Kd of 4.3 nM.
HHHHHHKLDQEWAWVQCEVYGRGCPSESFYDWFERQLG [S481] gave a Kd of 13 nM.
SLEEEWAQIECEVYGRGCPSESFYDWFERQL [S557] was tested, and the Kd was 0.02 nM.
For SIEEEWAQIKCDVWGRGCPSESFYDWFERQL [S517], the Kd was 0.6 nM.
SLEEEWAQVECEVYGRGCPSESFYDWFERQL [S530] gave a Kd of 0.008 nM.
SLEEEWAWVQCEVYGRGCPSESFYDWFERQL [S534] was tested, and the Kd was 0.01 nM.
Binder SLEEEWAQIECEVWGRGCPSESFYDWFERQL [S558] has a Kd of 0.019 nM.
In the case of SLEEEWAQIQCEVWGRGCPSESFYDWFERQL [S606], the Kd is reported as 0.004 nM.
For B5, the Kd was 2.4 nM.
With SLEEEWAQVECEVYGRGCPSFYDWFERQL [S531] the Kd was 0.075 nM.
SLEEEWAWVECEVYGRGCPSGSLDESFYDWFERQL [S532] showed a Kd of 0.037 nM.
B6 showed a Kd of 26 nM.
SLEEEWAQVECEVYGRGCPS [S547] gave a Kd of 49 nM.
Work on SLEEEWAQVECEVWGRGCPS [S548] yielded a Kd of 4.1 nM.
SLEEEWAQVECEVYGRGCSGSLDESFYDWFERQLG [S549] showed a Kd of 0.013 nM.
GSLDESFYDWFERQLGK (N-terminal acetyl; POX (not explained) between G16 and K17) [S550] was tested, and the Kd was 40 nM.
Work on SLEEEWAQVECEVYGRGCPPGLLDESFYHWFDRQLR [S553] yielded a Kd of 0.0073 nM.
Work on SLEEEWAQIECEVYGRGCPSESFYDWFERQLG [S554] yielded a Kd of 0.0064 nM.
For SLEEEWAQVECEVYGRGCPSESFYDWF[dV]RQLG (cysteine pairing not given here) [S555], the Kd was 0.057 nM.
Work on SLEEEWAQIEAEVWGRGAPSESFYDWFERQLG [S574] yielded a Kd of 0.0092 nM.
In the case of SLEEEWAQIECEVWGRGCSESFYDWFERQL [S559], the Kd is reported as 0.021 nM.
SIEEEWAQIKCDVWGRGCSESFYDWFERQL [S556] was tested, and the Kd was 0.032 nM.
